According to patent publication US12383631B2, “Immune antigen specific IL-18 immunocytokines and uses thereof” (Bright Peak Therapeutics AG, priority 2022, dated 2025):

How the values were obtained:
[1] = molecular target: T1, NK92 cells (Homo sapiens, UniProt O95256+Q13478); assay: IFN gamma secretion assay in NK92 cells (Example 10); type: cell-based; conditions: 1 ng/ml IL-12, 16-20 h, read-out: EC50 IFNγ secretion NK92 assay
T1 sequence (Q13478 19-541): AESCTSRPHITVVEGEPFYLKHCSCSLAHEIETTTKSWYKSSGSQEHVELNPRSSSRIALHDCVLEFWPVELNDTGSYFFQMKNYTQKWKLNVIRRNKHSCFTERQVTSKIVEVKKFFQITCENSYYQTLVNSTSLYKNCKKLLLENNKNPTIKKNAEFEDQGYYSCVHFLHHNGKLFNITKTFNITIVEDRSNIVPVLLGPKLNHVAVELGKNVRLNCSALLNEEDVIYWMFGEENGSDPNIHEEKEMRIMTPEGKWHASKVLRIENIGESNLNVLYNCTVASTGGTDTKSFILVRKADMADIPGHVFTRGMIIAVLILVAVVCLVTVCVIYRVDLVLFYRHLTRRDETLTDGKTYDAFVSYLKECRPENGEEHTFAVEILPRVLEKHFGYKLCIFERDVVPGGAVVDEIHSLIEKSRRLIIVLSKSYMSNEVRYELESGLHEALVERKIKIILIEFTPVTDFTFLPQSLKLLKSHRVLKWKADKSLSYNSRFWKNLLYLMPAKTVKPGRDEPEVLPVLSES
T1 sequence (O95256 20-599): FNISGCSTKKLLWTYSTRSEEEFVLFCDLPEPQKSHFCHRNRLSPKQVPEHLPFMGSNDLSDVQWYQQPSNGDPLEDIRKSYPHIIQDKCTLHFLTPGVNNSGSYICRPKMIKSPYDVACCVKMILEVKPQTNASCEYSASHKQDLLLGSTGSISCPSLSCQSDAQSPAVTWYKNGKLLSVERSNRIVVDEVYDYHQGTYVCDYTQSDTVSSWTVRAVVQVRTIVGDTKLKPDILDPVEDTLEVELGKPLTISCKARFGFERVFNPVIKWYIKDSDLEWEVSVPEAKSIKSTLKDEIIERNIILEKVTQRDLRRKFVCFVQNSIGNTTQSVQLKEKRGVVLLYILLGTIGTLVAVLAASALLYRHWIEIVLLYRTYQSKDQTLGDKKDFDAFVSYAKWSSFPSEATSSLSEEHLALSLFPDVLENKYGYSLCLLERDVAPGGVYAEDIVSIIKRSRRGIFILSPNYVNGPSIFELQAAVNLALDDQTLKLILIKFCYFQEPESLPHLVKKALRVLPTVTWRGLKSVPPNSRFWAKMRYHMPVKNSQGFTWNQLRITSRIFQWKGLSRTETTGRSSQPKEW
Protocol: The IFNγ-secretion stimulating activity of the unconjugated IL-18 variants and corresponding IL-18 immunocytokines was evaluated on NK92 cell line. The NIK cell line NK-92 derived from a patient with lymphoma (ATCC, Cat #CRL-2407) was cultured in aMIEM medium supplemented with 12.5% FCS, 12.5% horse serum (HS), 50 uM B-mercaptoEthanol, and 2 ng/ml of recombinant Human Interleukin-2 (IL-2).
On the day of experiment, cells were harvested and washed with aNMEM medium without IL-2 and resuspended in medium (w/o IL-2) containing 1 ng/ml of recombinant human Interleukin-12 (Sinofliologicals, Cat #CT011-H08H). After counting, cells were seeded at 100 000 cells/well in a 384 well titer plate and incubated at 37° C./5% CO2. […]
After 16-20 h incubation at 37° C./5% CO2, 5 μl of supernatant were carefully transferred to a 384 microwells OPTIPlate (Perkin Elmer; Cat #6007270) and Interferon-gamma (IFNγ) levels measured using the Human IFNγ AlphaLISA Assay Kit (Perkin Elmer, Cat #AL217C). […] AlphaLisa signal was then measured on an Enspire plate reader (Perkin Elmer) using 680 and 615 nm as excitation and emission wavelengths respectively. Half maximal effective concentration (EC50) was calculated based on a variable slope, four parameter analysis using GraphPad PRISM software.

[2] = molecular target: His-tagged human PD1 (Homo sapiens, UniProt Q15116); assay: Bio-Layer Interferometry (BLI) binding kinetics to PD-1 (Example 6); conditions: AHC sensors, analyte His-tagged human PD1
Sequence of His-tagged human PD1 (Q15116 25-288): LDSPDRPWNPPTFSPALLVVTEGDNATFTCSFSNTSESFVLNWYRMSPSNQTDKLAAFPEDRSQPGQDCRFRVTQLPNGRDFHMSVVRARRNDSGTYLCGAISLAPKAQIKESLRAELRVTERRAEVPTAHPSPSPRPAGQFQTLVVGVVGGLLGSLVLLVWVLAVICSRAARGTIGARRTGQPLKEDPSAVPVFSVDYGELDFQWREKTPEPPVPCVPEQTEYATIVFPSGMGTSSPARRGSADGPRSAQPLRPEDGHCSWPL
Description: Based on Bio-Layer Interferometry (BLI), Octet® BLI systems enable real-time, label-free analysis for the determination of kinetics and affinity of a ligands to its receptor. Here anti-human IgG FC Capture (AHC) sensors are loaded with the test items (ICs). Sensors are first dipped into a kinetic buffer for baseline measurement, then into an analyte solution, here human PD1, to allow association and again into a buffer solution where the analyte is allowed to come off the ligand (dissociation). Several concentrations of analyte are run in parallel and enable the calculation of affinity parameters: Ka, Kd, KD.
Typically, first, the sensors are regenerated by 3 cycles of dipping into 10 mM glycine solution at pH=2 for 20 seconds, followed by 20 second kinetics buffer and a final 60 seconds in kinetics buffer to establish the initial signal (baseline). Second, the loading column will contain the ligand, here the unmodified PD-1 antibodies and of IL-18 polypeptide conjugated PD-1 antibody, at a fixed concentration determined in the loading scout experiment (20 ug/mL). Then another wash/baseline step allows non immobilized proteins to be washed away. […] After acquisition, the data is analyzed with Data Analysis Studio software (Sartorius). […] Group fitting is then applied to the data series and kinetics parameters are calculated.

Substance	EC50 [1] [pM]	ka [2] [M⁻¹ s⁻¹]	kd [2] [s⁻¹]
Composition B: immunocytokine: Atezolizumab/Tecentriq (anti-PD-L1) conjugated to IL-18 polypeptide SEQ ID NO: 30	1	–	–
LZM-009: anti-PD-1 antibody (VH SEQ ID NO: 376, VL SEQ ID NO: 377), unconjugated reference antibody [reference compound]	–	342000	0.0077
